Data on three substances can be found in doi:10.1101/200493.

Read-outs that look alike come from different tables or passages of the source.

The target of test [1] is His-tagged human recombinant αVβ3 integrin (human) (UniProt P06756). The experiment in a line: BLI. In general terms: In BLI a coated tip is dipped into the sample, and binding shifts an interference pattern.
The target is the same in test [2]. The experiment in a line: BLI. This is another data set of the same source.

Sequence of His-tagged human recombinant αVβ3 integrin (human) (P06756 31-1048, chain 1 of 2): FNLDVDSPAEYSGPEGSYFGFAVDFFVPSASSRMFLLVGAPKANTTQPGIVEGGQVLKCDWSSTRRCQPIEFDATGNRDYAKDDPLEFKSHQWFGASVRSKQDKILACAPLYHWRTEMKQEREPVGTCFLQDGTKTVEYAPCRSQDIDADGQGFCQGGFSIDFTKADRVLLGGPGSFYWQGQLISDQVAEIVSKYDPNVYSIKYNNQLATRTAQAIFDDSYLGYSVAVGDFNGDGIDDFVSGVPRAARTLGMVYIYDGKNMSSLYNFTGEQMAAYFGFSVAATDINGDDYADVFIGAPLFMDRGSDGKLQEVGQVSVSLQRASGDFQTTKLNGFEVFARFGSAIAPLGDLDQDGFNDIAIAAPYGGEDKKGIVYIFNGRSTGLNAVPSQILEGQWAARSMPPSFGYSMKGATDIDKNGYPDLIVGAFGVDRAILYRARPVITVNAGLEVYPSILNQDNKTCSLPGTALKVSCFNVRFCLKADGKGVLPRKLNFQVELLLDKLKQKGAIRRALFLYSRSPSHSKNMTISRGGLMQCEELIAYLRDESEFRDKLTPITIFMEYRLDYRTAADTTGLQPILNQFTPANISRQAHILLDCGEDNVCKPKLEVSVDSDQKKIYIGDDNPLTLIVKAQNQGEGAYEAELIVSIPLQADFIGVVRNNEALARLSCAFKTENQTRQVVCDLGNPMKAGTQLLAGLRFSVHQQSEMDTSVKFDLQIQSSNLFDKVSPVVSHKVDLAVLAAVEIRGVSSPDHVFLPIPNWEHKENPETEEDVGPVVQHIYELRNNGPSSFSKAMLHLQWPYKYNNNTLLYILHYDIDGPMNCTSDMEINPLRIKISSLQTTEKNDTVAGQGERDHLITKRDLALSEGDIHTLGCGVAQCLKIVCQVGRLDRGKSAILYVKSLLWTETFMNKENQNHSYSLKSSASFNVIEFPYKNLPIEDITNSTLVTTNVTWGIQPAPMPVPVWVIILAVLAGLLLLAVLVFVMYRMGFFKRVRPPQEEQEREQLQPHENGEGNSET
Sequence of His-tagged human recombinant αVβ3 integrin (human) (P05106 27-718, chain 2 of 2, further chain): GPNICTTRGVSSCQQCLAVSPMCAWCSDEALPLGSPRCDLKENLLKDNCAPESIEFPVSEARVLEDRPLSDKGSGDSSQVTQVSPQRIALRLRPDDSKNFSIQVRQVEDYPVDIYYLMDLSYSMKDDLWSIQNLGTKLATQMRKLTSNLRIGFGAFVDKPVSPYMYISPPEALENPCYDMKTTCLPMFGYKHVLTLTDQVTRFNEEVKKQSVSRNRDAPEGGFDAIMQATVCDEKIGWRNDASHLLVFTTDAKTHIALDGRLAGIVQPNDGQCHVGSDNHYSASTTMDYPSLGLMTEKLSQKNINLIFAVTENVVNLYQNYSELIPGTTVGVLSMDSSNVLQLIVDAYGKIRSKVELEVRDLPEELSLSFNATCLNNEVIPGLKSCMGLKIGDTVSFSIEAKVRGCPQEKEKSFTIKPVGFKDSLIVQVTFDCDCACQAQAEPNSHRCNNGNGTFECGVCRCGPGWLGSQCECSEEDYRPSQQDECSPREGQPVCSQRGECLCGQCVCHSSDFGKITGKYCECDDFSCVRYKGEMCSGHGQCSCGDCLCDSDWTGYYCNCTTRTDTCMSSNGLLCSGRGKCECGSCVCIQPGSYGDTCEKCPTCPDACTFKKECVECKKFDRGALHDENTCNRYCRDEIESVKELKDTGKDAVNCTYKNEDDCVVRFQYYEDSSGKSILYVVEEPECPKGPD
Sequence of human vitronectin (P04004 20-478): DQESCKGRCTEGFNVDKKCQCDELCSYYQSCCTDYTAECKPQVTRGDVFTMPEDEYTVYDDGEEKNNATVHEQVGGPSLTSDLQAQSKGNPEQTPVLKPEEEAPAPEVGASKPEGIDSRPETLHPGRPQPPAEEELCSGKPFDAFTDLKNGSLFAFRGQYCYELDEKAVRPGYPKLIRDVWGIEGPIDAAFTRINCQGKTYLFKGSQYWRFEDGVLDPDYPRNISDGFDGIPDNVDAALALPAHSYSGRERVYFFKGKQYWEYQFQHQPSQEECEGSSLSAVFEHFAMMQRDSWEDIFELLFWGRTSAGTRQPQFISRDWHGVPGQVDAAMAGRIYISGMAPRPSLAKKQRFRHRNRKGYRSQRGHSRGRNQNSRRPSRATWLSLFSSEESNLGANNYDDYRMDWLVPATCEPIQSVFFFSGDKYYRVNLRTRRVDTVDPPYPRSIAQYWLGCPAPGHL

Consider “native human fibrinogen (from UniProt P02671 36-866; P02675 45-491; P02679 27-453) (ligand)”, for which the Kd in test [1] was determined as 8.15 nM.
For the substance human plasma fibronectin (ligand), the dissociation constant Kd in test [1] is 54 nM.
As to “human vitronectin (from UniProt P04004 20-478) (ligand)”, the figures for the Kd in test [2] and in test [1] were 303 nM and below 0.001 nM, respectively.

One may read the Kd as a measure of binding affinity in units of concentration.
